Measurements from patent publication US20030158083A1, “Method of effecting angiogenesis by modulating the function of a novel endothelia phosphatase” (The Procter & Gamble Company, priority 2002, published 2003).

Assays:
[1] = target: T1, VEGF receptor-2 (Homo sapiens, UniProt P35968); experiment: Co-immunoprecipitation with VEGF receptor-2 in HEK 293 cells; type: cell-based; settings: HEK 293 VEGFR2 stable cells, 1 nM VEGF 5 min or untreated, anti-VEGFR2 IP
T1 construct: Co-immunoprecipitation of full-length KAPh with full-length VEGF receptor-2; expressed in transfected cells
T1 sequence (P35968 20-1356): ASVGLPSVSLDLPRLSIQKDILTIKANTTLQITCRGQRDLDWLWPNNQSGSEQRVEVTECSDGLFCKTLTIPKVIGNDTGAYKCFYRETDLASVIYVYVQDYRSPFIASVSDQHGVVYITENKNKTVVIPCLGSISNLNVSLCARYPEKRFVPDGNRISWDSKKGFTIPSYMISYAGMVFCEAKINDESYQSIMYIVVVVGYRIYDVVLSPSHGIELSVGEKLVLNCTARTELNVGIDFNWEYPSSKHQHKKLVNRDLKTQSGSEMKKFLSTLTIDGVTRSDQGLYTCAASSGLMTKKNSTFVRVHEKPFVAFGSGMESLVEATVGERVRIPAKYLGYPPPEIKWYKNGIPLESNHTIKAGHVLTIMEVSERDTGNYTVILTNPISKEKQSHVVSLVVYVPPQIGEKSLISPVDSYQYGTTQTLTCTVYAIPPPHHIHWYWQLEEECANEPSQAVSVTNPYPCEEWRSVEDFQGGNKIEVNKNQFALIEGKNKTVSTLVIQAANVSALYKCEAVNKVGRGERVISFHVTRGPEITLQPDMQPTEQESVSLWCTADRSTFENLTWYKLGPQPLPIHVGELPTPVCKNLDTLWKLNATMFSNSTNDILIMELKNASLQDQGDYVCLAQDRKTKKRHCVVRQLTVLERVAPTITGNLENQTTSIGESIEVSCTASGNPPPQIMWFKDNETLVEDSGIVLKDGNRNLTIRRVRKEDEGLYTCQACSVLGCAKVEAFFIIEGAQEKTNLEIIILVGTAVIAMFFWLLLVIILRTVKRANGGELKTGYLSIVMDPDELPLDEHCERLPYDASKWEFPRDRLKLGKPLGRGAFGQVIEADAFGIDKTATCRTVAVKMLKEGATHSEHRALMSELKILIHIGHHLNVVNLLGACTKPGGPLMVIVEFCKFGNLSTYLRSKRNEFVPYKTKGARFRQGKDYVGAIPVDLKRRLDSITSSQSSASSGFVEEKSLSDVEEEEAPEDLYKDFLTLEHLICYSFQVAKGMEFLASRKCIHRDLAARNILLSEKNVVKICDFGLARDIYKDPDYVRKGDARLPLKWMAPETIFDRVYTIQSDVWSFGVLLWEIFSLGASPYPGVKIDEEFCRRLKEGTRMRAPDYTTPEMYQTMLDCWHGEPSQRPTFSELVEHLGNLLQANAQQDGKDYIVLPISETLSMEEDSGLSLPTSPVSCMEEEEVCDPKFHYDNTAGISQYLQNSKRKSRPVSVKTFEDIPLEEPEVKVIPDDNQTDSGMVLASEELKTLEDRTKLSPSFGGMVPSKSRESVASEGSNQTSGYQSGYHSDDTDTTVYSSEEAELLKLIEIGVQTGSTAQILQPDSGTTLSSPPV
Experimental: Human umbilical vein endothelial cells (HUVEC) obtained from Clonetics (Walkersville, Md.) were cultured in endothelial growth medium (Clonetics) and were used up to passage 3. HEK 293 cells obtained from the American Type Culture Collection (Manasses, Va.) were cultured in cell growth medium (Dulbecco's modified Eagle's medium supplemented with 10% fetal bovine serum, 1% L-glutamine, 1% nonessential amino acids, and 1% antimycotics). For stable expression, hVEGFR2 was subcloned into pLNCX (Clontech, Palo Alto, Calif.), […] transfected into HEK 293 cells, and selected in the presence of Geneticin. The HEK 293 VEGFR2 clonal cell line was transiently transfected with either the SH2 domain or full-length KAPh in the mammalian expression vector pcDNA4/HisMax (Invitrogen, Carlsbad, Calif.). All constructs were transfected using LipofectAMINE PLUS (Life Technologies, Rockville, Md.) in serum-free DMEM according to the manufacturer's instructions.
HEK 293 cells that stably expressed the VEGF receptor-2 were transiently transfected to express the KAPh SH2 domain or full-length KAPh were treated with 1 nM VEGF or left untreated for 5 min. The cells were lysed in 1% triton lysis buffer with protease inhibitors. Insoluble debris was removed from the lysates by centrifugation at 14,000×g for 10 min at 4° C. […]

[2] = test system: Tie 2; experiment: GST pull-down association assay, Tie 2; type: binding, human; settings: wild-type and kinase-inactive mutant
Description: (§1) Recombinant VEGFR-1 kinase (wild-type and K862R mutant), VEGFR2 kinase (wild-type and K870R mutant), Tie1 kinase (wild-type and K871R mutant), and Tie2 kinase (wild-type and K856R mutant) were expressed as glutathione S-transferase (GST) fusion proteins in Sf9 cells using a baculovirus expression system. Briefly, the intracellular domain of each receptor tyrosine kinase was generated as an in-frame GST fusion using the pAcGHLT baculovirus transfer vector (Pharmingen, San Diego, Calif.). Each baculovirus transfer vector construct was cotransfected with BaculoGold (Pharmingen, San Diego, Calif.) linearized AcNPV baculovirus DNA into Sf9 cells for the generation of recombinant baculoviruses. Five days post-transfection, recombinant baculoviruses were harvested and amplified by re-infection of Sf9 cells. Each amplified baculovirus was then used to infect Sf9 cells for the expression of the recombinant kinases. […]
(§2) The immobilized, autophosphorylated kinases were then incubated with HEK 293 cell lysates which overexpressed either the KAPh SH2 domain or KAPh full-length protein. […] KAPh protein that associated with the recombinant kinases was analyzed by Western blot using a chemiluminescence detection system (Amersham Pharmacia, Piscataway, N.J.).

[3] = test system: Tie 1; experiment: GST pull-down association assay, Tie 1; type: binding, human; settings: wild-type and kinase-inactive mutant
Description: as §1, §2

[4] = target: T2, human VEGF receptor-2 (KDR) (Homo sapiens, UniProt P35968); experiment: GST pull-down association assay, VEGFR2; type: binding; settings: HEK 293 lysate expressing His-tagged protein; Western blot
T2 construct: the intracellular domain of each receptor tyrosine kinase was generated as an in-frame GST fusion; made in house; host or cells: Sf9 insect cells (baculovirus)
T2 sequence (P35968 790-1356): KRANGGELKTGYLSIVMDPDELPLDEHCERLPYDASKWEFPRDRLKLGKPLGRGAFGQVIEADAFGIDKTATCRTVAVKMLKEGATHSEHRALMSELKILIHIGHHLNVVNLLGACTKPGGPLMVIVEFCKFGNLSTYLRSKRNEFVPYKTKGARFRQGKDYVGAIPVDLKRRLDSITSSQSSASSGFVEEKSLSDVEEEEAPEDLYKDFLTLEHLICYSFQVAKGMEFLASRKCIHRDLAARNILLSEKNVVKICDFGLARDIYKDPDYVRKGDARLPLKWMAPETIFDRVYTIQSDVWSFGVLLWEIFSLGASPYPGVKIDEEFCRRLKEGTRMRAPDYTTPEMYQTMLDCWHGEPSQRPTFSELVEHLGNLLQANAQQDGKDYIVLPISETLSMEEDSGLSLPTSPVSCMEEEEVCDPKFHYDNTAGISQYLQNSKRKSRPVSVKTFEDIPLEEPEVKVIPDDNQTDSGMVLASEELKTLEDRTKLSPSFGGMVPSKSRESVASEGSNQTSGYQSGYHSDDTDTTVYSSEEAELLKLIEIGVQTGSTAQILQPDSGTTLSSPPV

[5] = target: T3, human VEGF receptor-2 (KDR) (Homo sapiens, UniProt P35968, Y1175F); experiment: GST pull-down association assay, VEGFR2; type: binding; settings: GST fusion Y1175F versus wild-type
T3 construct: the intracellular domain of each receptor tyrosine kinase was generated as an in-frame GST fusion; made in house; host or cells: Sf9 insect cells (baculovirus)
T3 sequence (P35968 790-1356 Y1175F): as the sequence (P35968 790-1356) above, with Y386F counted along it

[6] = target: T4, human VEGF receptor-2 (KDR) (Homo sapiens, UniProt P35968, Y951F); experiment: GST pull-down association assay, VEGFR2; type: binding; settings: GST fusion Y951F versus wild-type
T4 construct: the intracellular domain of each receptor tyrosine kinase was generated as an in-frame GST fusion; made in house; host or cells: Sf9 insect cells (baculovirus)
T4 sequence (P35968 790-1356 Y951F): as the sequence (P35968 790-1356) above, with Y162F counted along it

[7] = target: T1, VEGF receptor-2; experiment: Dephosphorylation of 32P-labeled VEGF receptor-2; type: biochemical; settings: incubated overnight; data not shown
[8] = Peptide phosphatase assay (BIOMOL green); type: biochemical; settings: any peptide substrates examined; data not shown

co-immunoprecipitation with VEGFR2 [1]: detected in cells stimulated with VEGF
interaction with VEGFR2 Y1175F mutant [5]: nearly abolished
association with VEGFR2 Y951F mutant [6]: no significant change in association
B1: KAPh: novel human KDR Associated Phosphatase protein, full-length sequence SEQ ID NOS 1 and 2 (protein, listed as Homo sapiens)
chain: MKPRKAEPHSFREKVFRKKPPVCAVCKVTIDGTGVSCRVCKVATHRKCEAKVTSACQALPPVELRRNTAPVRRIEHLGSTKSLNHSKQRSTLPRSFSLDPLMERRWDLDLTYVTERILAAAFPARPDEQRHRGHLRELAHVLQSKHRDKYLLFNLSEKRHDLTRLNPKVQDFGWPELHAPPLDKLCSICKAMETWLSADPQHVVVLYCKGNKGKLGVIVSAYMHYSKISAGADQALATLTMRKFCEDKVATELQPSQRRYISYFSGLLSGSIRMNSSPLFLHYVLIPMLPAFEPGTGFQPFLKIYQSMQLVYTSGVYHIAGPGPQQLCISLEPALLLKGDVMVTCYHKGGRGTDRTLVFRVQFHTCTIHGPQLTFPKDQLDEAWTDERFPFQASVEFVFSSSPEKIKGSTPRNDPSVSVDYNTTEPAVRWDSYENFNQHHEDSVDGSLTHTRGPLDGSPYAQVQRPPRQTPPAPSPEPPPPPMLSVSSDSGHSSTLTTEPAAESPGRPPPTAAERQELDRLLGGCGVASGGRGAGRETAILDDEEQPTVGGGPHLGVYPGHRPGLSRHCSCRQGYREPCGVPNGGYYRPEGTLERRRLAYGGYEGSPQGYAEASMEKRRLCRSLSEGLYPYPPEMGKPATGDFGYRAPGYREVVILEDPGLPALYPCPACEEKLALPTAALYGLRLEREAGEGWASEAGKPLLHPVRPGHPLPLLLPACGHHHAPMPDYSCLKPPKAGEEGHEGCSYTMCPEGRYGHPGYPALVTYSYGGAVPSYCPAYGRVPHSCGSPGEGRGYPSPGAHSPRAGSISPGSPPYPQSRKLSYEIPTEEGGDRYPLPGHLASAGPLASAESLEPVSWREGPSGHSTLPRSPRDAPCSASSELSGPSTPLHTSSPVQGKESTRRQDTRSPTSAPTQRLSPGEALPPVSQAGTGKAPELPSGSGPEPLAPSPVSPTFPPSSPSDWPQERSPGGHSDGASPRSPVPTTLPGLRHAPWQGPRGPPDSPDGSPLTPVPSQMPWLVASPEPPQSSPTPAFPLAASYDTNGLSQPPLPEKRHLPGPGQQPGPWGPEQASSPARGISHHVTFAPLLSDNVPQTPEPPTQESQSNVKFVQDTSKFWYKPHLSRDQAIALLKDKDPGAFLIRDSHSFQGAYGLALKVATPPPSAQPWKGDPVEQLVRHFLIETGPKGVKIKGCPSEPYFGSLSALVSQHSISPISLPCCLRILSKDPLEETPEAPVPTNMSTAADLLRQGAACSVLYLTSVETESLTGPQAVARASSAALSCSPRPTPAVVHFKVSAQGITLTDNQRKLFFRRHYPVNSITFSSTDPQDRRWTNPDGTTSKIFGFVAKKPGSPWENVCHLFAELDPDQPAGAIVTFITKVLLGQRK
interaction with GST Tie 2 [2]: no interaction
interaction with GST Tie 1 [3]: no interaction
interaction with GST VEGFR2, wild-type versus catalytically inactive K870R [4]: interacted in an autophosphorylation-dependent manner
change in phosphorylation of 32P-labeled VEGF receptor-2 [7]: unable to detect a change in phosphorylation
phosphatase activity using peptide substrates [8]: unable to detect significant, reproducible phosphatase activity
